Experimental data from article PMC5977221.
Where “and” joins values, the source holds several entries; their conditions need not be identical. Equal entries are not always repeated.

Assays:
[1] = system: BAA2326 repressor (Shiga toxin-encoding bacteriophage BAA2326 (from STEC)); assay: EMSA; settings: for binding signal: scale: fold Kd relative to separate OR1
[2] = system: BAA2326 repressor (Shiga toxin-encoding bacteriophage BAA2326 (from STEC)); assay: DNaseI footprinting

| Substance | binding signal [1] | other results |
| --- | --- | --- |
| GCGAATTCACTAAAGCACTTGCAATATCACCTTTGGTTATATGTAATGCCATAATAACTAAGAAGCTTCC (double strand) [BAA2326 OR3 oligonucleotide] | 2.5 |  |
| GCGAATTCACTAAAGCACTTGCAATATGTAATGAAATATCTGCGGTGTTGACATTCCATAATAACTAAGAAGCTTCC (double strand) [BAA2326 OR2 oligonucleotide] | 83.3 |  |
| GCGAATTCACTAAAGCACTTGCATTTAATAACTGTGCGTAATGATATGCCATAATAACTAAGAAGCTTCC (double strand) [BAA2326 OR1 oligonucleotide] |  | Kd [1]: 0.42 nM |
| intact BAA2326 OR, wild type |  | Kd [2]: 28.6 nM and 44 nM and 59.1 nM |
